Laboratory results as given in PMC11549432 (Nature Communications, 2024).
Like-named read-outs stand apart in the source and are kept apart here. Values belong to the molecule of their own block, whether it stands above or below them.

Key:
[1] = molecular target: ObgE (Obg of E. coli), wild type, N-terminally His6-tagged, purified (E. coli) (UniProt P42641); test: MST
[2] = molecular target: ObgE (Obg of E. coli), wild type, N-terminally His6-tagged, purified (E. coli) (UniProt P42641); test: MST; remark: listed apart in the source
[3] = molecular target: ObgE (Obg of E. coli), wild type, N-terminally His6-tagged, purified (E. coli) (UniProt P42641); test: MST; remark: listed apart in the source
SEC-MALS = molecular target: the molecule itself; test: SEC-MALS

Chain of ObgE (Obg of E. coli), wild type, N-terminally His6-tagged, purified (E. coli) (P42641 whole entry): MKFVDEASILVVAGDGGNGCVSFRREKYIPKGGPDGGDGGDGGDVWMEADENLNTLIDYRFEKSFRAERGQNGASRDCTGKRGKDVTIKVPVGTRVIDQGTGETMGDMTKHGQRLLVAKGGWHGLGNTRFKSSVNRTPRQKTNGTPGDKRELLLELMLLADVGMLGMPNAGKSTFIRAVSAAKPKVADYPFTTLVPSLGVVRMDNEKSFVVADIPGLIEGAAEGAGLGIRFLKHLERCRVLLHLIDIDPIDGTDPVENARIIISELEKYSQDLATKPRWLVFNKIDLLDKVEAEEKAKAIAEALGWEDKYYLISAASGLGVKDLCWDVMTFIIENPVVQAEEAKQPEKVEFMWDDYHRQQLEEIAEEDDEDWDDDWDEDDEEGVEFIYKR

Kd [1]: 47 µM
Kd [2]: 99 µM
Kd [3]: 78 µM
Molecule: LpxA wild type (UDP-N-acetylglucosamine acyltransferase), purified (from UniProt P0A722 1-262) (enzyme)

B1: LpxA wild type (UDP-N-acetylglucosamine acyltransferase), purified (enzyme, E. coli, UniProt P0A722 1-262, looked up)
chain: MIDKSAFVHPTAIVEEGASIGANAHIGPFCIVGPHVEIGEGTVLKSHVVVNGHTKIGRDNEIYQFASIGEVNQDLKYAGEPTRVEIGDRNRIRESVTIHRGTVQGGGLTKVGSDNLLMINAHIAHDCTVGNRCILANNATLAGHVSVDDFAIIGGMTAVHQFCIIGAHVMVGGCSGVAQDVPPYVIAQGNHATPFGVNIEGLKRRGFSREAITAIRNAYKLIYRSGKTLDEVKPEIAELAETYPEVKAFTDFFARSTRGLIR
stoichiometry N (SEC-MALS): 3
